The nanobody polyreactivity screen of Harvey et al. (2022)

Test: yeast display, Sf9 membrane polyspecificity reagent, FACS + sequencing; frameworks hold sequencing errors
Outline: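 Galactose induction of a Saccharomyces cerevisiae BJ5465 synthetic nanobody display library ran 36–48 hours. The cells were then stained for 1 hour at 4 °C with 10% biotinylated, detergent-solubilized Sf9 membrane reagent, pulled down on streptavidin microbeads and FACS-sorted into low and high (top ~1%) gates on expression and reagent-binding fluorescence. Labels for polyreactivity follow the gate of origin.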

QVQLVESGGGLVQAGGSLRLSCAASGITFDYYGMGWYRQAPGKERALCASITSGGSTNYADSVKGRFTISRDNAKNSVYLQMNSLKPEDTAVYYCAADGYGGYYRGTYYTVYFWGQGTQVTVSS
polyreactivity (PSR sort gate): low polyreactivity

QVQLVESGGGLVQAGGSLRLSCAASGSIFFVYAMGWYRQAPGKERELVAAIDWDGGSTYYADSVKGRFTISRDNAKNTVYLQMNSLKPEDTAVYYCAADAWDLYSDGQEYNYWGQGTQVTVSS
polyreactivity (PSR sort gate): high polyreactivity

QVQLVESGGGLVQAGGSLRLSCAASGLTLRNSAMGWYRQAPGKERELVAAITTGGGRTYYADSVKGRFTISRDNAKNTVYLQMNSLKPEDTAVYYCAKKPSSARYVTIGFDYWGQGTQVTVSS
polyreactivity (PSR sort gate): low polyreactivity

QVQLVESGGGLVQAGGSLRLSCAASGIIFWTYTMGWYRQAPGKERELVAAISSGGSTNYADSVKGRFTISRDNAKNTVYLQMNSLKPEDTAVYYCAKRRQYQRSYNYWGQGTQVTVSS
polyreactivity (PSR sort gate): low polyreactivity

QVQIEESGGGLVQAGGSLRLSCAASGRTFNFYAMGWYRQATGKERELVAAISHGDSTYYADSVKGRFTISRDNAKNTVYLQMNSLKPEDTAVYYCAASQKYYLRKYEYWGQGTQVTVSS
polyreactivity (PSR sort gate): low polyreactivity

QVQLVESGGGLVQAGGSLRLSCAASGSTFWYNAMGWYRQAPGKERELVAAITQSGTRTYYADSVKGRFTISRDNAKNTVYLQMNSLKPEDTAVYYCAARGREWYYWGQGTQVTVSS
polyreactivity (PSR sort gate): high polyreactivity

QVQLVESGGGLVQAGGSLRLSCAASGITFYVNAMGWYRQAPGKERELVAAISNGGSTNYADSVKGRFTISRDNAKNTVYLQMNSLKPEDTAVYYCAARPSYGRYRYYYWGQGTQVTVSS
polyreactivity (PSR sort gate): high polyreactivity

QVQLVESGGGLVQAGGSLRLSCAASGSIIGSNAMGWYRQAPGKERELVAAISRSGTRTYYADSVKGRFTISRDNAKNTVYLQMNSLKPEDTAVYYCATRGGGYWGQGTQVTVSS
polyreactivity (PSR sort gate): high polyreactivity

RSGGGLVQAGGSLRLSCAPSGRIFKINAMGWYRQPPGKERALVARITRGGSTYYADSVKGRFTISRDNATNTVYLQMTSVKPEDTAVYYCAADDTGPYSNSYDYWGQGTQVTFSS
polyreactivity (PSR sort gate): low polyreactivity

QVQLVETGGGLVQAGGILRLSCAASGSIFKAYAMGWYRQAPGKERELVAAITWSGGSTYYADSVKGRFTNSRDNAKNTVYLQMNSLKPEDTAVYYCAATLGLWAYYLYDYWGQGTQVTVSS
polyreactivity (PSR sort gate): low polyreactivity

QVQLVESGGGLVQAGGSIRLSCAASGNIFVSYAMGWYRQAPAKERELVAAISKSGGSTYYADSVKGRFTISRDNAKNTVYLQMNSLKPEDTAVYYCAARWYNRVKYQKYNYWGQGTQVTVSS
polyreactivity (PSR sort gate): high polyreactivity

QVQLVESGGGLVQAGGSLRLSCAASGSTFYSYAMGWYRQAPGKERELVAAISWSGGSTYYADSVKGRFTISRDNAKNTVYLQMNSLKPEDTAVYYCAATRTRGYDGYGMYYWGQGTQVTVSS
polyreactivity (PSR sort gate): high polyreactivity

QVQLVESGGGLVQAGGSLRLSCAASGSNFDLNAMGLYRQAPGKERELVAAISSGGGTYYADSVKGRFTIARDNAKNTVYLQMNSLKPEDTAVYYCNRVTRWTYNYWGQGTQVTVSS
polyreactivity (PSR sort gate): high polyreactivity

QVQLVESGGGLVQAGGSLRLSCAASGIIFSPNAMGWYRQAPGKEMELVAGISSGGSTYYADSVKGRFTISRDNAKNTVYFQMNSLKPEDTAVYYCNRGWAHSNAKFDYWGQGTQVTVSS
polyreactivity (PSR sort gate): high polyreactivity

QVQLVESGGGLVQAGGSLRLSCAACGITWGYAMGWYRQAPGKERELVAVIRWSGTSTSYADSVKGRYTISRAKAKNTVYLQMNSLKPEDTAVYYCNAAWYDQYGDSDGDDYWGQGTQVTVSS
polyreactivity (PSR sort gate): low polyreactivity

QVQLVESGGGLVQAGGSLRLSCAASGRTFYGYAMGWYRQAPAKERELVAAITWSVGRTYYADSVKGRFTISRDNAKNTVYLQMNSLKPEDTAVYYCAAQRAGLFNYWGQGTQVTVSS
polyreactivity (PSR sort gate): low polyreactivity

QVQLVESGGGLVQAGGSLRLSCAASGLIFGPNAMGWYRQAPGKERELVAAITKSGDSTYYADSVKGRFTISRDNAKNTVYFQMNSLKPEDTAVYYCAADTTTGLYDYWGQGTQVTVSS
polyreactivity (PSR sort gate): low polyreactivity

QVQLVESGGGLVQAGGSLRLSCAASGRTTYWYAMGWYRQAPGKERELLADISWSGGSTYYADSVKGRFTISRDNAKNTVYIQMNSLKPEDTAVYYCNAAEQKYSIYYAFDTGPYDYWGQGTQVTVSS
polyreactivity (PSR sort gate): low polyreactivity

QVQLVESGGGLVQAGGSLRLSCAASGSIFSYYAMGWSRQAPGKERELVAAISRSGTSTYYADSVKGRFTISRDNAKNTVSLQMNSLKPEVNAVDYCNARWGFSRHRLMGYWGQGTQVSVSS
polyreactivity (PSR sort gate): high polyreactivity

QVQLVESGGGLVQAGGSLRLSFAASGRTFHGYAMGWYRQAPGKERELVARINWSDGRTYYADSVKGRFTISRDNAKNTVYLQMNSLKPEDTAVYYCAADKTVSYAPAWYYYWGQGTHVTVSS
polyreactivity (PSR sort gate): low polyreactivity

QVQLVESGGGLVQAGGSVRLSCAASGLTFQRYAMGGYRQAPGKERELVASITGNGGSTYYADSVKGRFSISRDNAKNTVYLQMNSLKPEDTAVYYCNARRYVRTCQQPLYDYWGQGTQVTVSS
polyreactivity (PSR sort gate): high polyreactivity

QVQLVESGGGLVQAGGSLRLTCAASGRILSHYAMVWYIQAPGKERELVATINSGGATYYADSVKGRFTISRDNAKYTVYFQMNSLKPEDTAVYYCAVDYAVSYAGWVLRYDYWGQGTQVTVSS
polyreactivity (PSR sort gate): low polyreactivity

QVQLVESGGGLFQAGGRLRLSCASSGYTFDYYTMAWYRQAPGKERELVARITASGGSTYYADSVKGRFTISRDNAKNTVYLQMNSLKPEDTAVYYCAADYWWYTGYDYWGQGTQVTVSS
polyreactivity (PSR sort gate): high polyreactivity

QVQLVESGGGLVQAGGSLRLSCAASGRILVYYAMGWYRQAPGKEREFVAAISQRGGSTYYADSVKGRFTISRDNAKNTVYLQMNSLKPEDTAVYYCATRPIQYRRGYDYWGQGTQVTVSS
polyreactivity (PSR sort gate): high polyreactivity

QVQLVESGGGLVQAGGRLRLICAASGSTFRANIMRWSRQAPGKERELVAAITSGGGSTYYADSVKGRFTISRDNAKNTVYLQMNSLKPEDTAVYYCAARIYHDIDTRSYYWGQGTQVTVSS
polyreactivity (PSR sort gate): high polyreactivity

QVQLVESGGGLVQAGGSLRLSCAASGITFYYYAMGWYRQAPGKERELVAAISSRGGSTYYADSVKGRFTISRDNAKNTVYLQMNSLKPEDTAVYYCAALYDYWGQGTQVTVSS
polyreactivity (PSR sort gate): high polyreactivity

QVQLVESGGGLVQAGGSLRLSCAASGSIFYTNAMGWYRQAPGKERELVASITGGGSTKYADSVKGRFTISRDNAKNTVYLQMNSLKPEDTAVYYCAKRRYWPLDWGQGTQVTVSS
polyreactivity (PSR sort gate): high polyreactivity

QVQLVESGGGLVQAGGSLRLTCAASGFTFYLNAMGWYRQAPGKERELVAAITDDGDSTYYADSVKGRFTISRDNAKNTVYLQMNSLKPEDTAVYYCNTVYGPDLDGTEYDYWGQGTQVTVSS
polyreactivity (PSR sort gate): low polyreactivity

QVQLVESGGGLVQAGGSLRLSCAASGRTFYYYAMGWYRQAPGKEREMVATISGGSSTNYADSVKWRFTISRDNAKNTVYLQMNSLKPEDTAVFYCAARWWRGGGYRPNYYKLKYDYWGQGTQVTVSS
polyreactivity (PSR sort gate): high polyreactivity

QVQLVESGGGLVQAGGSLRLSCAASGSIFTRNAMGWYRQAPGKERELVASISYSGGNTYYADSVKGRFTISRDNAKNTVYLQMNSLKPEDTAVYYCNARRWFYLLYGYDYWGQGTQVTVSS
polyreactivity (PSR sort gate): high polyreactivity

QVQLVESGGGLVQAGGSLRLSCAASGSIFCSYAMGWYRQAPGKERELVAAITWSGGNTYADSVKGRFTISRDNAKNTDYLQMNSLKPEDTAVYYCAADPAHGTKWYVYPSHDDYWGQGTQGTVSS
polyreactivity (PSR sort gate): low polyreactivity

QVQLVESGGGLVQAGGSLRLTCAASGRIFYYYAMAWYRQAPGKEMELVAAIRRGGFTYYADSVKGRFTISRDNAKNTVYLQMYSLKQEDTAVYYCAAGVSKPNGYYYLRGYERGYWGQGTQVTVSS
polyreactivity (PSR sort gate): high polyreactivity

QVQHVESGGGLVQAVGSLRLSFAASGSIFRGYAMGGYRPAPGKERELVAAIRYSGARTYYADSVKGRFTISRDNAKNTVYLQMNSLKPEDTAVYYCNARSYSRTHYDYWGQGTQVTVSS
polyreactivity (PSR sort gate): high polyreactivity

QVQLVESGGGLVQAGGSLRLSCAASGFIFAYNAMGWYRQAPGKERELVASIRTRAGSTYYADSVKGRFTISRDNAKNTDYLQMNSLKPADTAVYYSAARPFPRRYDYWGQGTQVTVSS
polyreactivity (PSR sort gate): low polyreactivity

QVQLVESGGGLGQAGGSLGLSCAASGRTFYVNAMGWYRQAPGKERELVAAISWSGGSTYYADSVKGRFTISRDNAKNTVYLPINSLNPEDTAVYYCAAEDIEDYEYWGQGTQVTVSS
polyreactivity (PSR sort gate): low polyreactivity

QVQLVESGGGLVQAGGSLRLSCAASGFIFNNYAMGWSRQAPGKERELVAAITWSGGGTYYADSVKGRFTISRDNAKNTVYLQMNSLKPEDSAVYYCAVYYPAYLEEYWGQGTQVTVSS
polyreactivity (PSR sort gate): high polyreactivity

QVQLVESGGGLVQAGGSLRLSCAASGVNAMGWYRQAPGKEREIVAAITSIGGSTYYADSVKGRFTISRDNAKNTVSLQMNSLKPEDTAVYYCNTDRGPVKVSPLYESWGQGTQVTVSS
polyreactivity (PSR sort gate): low polyreactivity

QVQLVESGGGLVQAGGSLRLSCAASGLTFGSYTMGWYRQAPGRERDLVAAITSDGSTNYADSVKGRFTISRDNAKNTVYLQMNSLKPEDTAVYYCNKGETLYGSVPYDYWGQGTQVTVSS
polyreactivity (PSR sort gate): high polyreactivity

QVQLVESGGGLVQAGGSLRLSCAASGRIFADYAMGWYRQAPGKEREMVADIRQSGGRTYYADSVKGRFTISRDNAKNTVYLQMNSLKPEDTAVYYCATEYGSLGDYSGKYDYWGQGTQVTVSS
polyreactivity (PSR sort gate): low polyreactivity

QVQLVESGGGLVQAGCSLRLSCAASGSIVDPYAMGWYRQAPRKEREWVAAISGSGGSTYYADSVKGRFTISRDNAKNTVYLQMNSLKPVDTSVYYCAAADAWWGRRYKYYHWGQGTQVTVSS
polyreactivity (PSR sort gate): low polyreactivity

QVQLVESGGGLVQAGGSLRLSCAASGSTFFSYAMGWYRQAPGKERELVAAISNTGGTHYADSVKGRFTISRDNAKNTVYLQMNSLKPEDTAVFYCAADGWYYIGPFSVYSSFTSDYWGQGTQLTVSS
polyreactivity (PSR sort gate): low polyreactivity

QVQLVESGGGLVQAGGSLRLSCAASGINFNYYAMGWYRQAPGKERELVAAISSTGSTYYSDSVKGRFTISRDNAKNTVYLQMNSLKPEDTAVYYCAAEWWDTGFANYGYDYWGQGTQVTVSS
polyreactivity (PSR sort gate): high polyreactivity

QVQLVESGGGLVHAGGSLRLSCAASGFIFDTYLMGRYRQAPGTERELVAAISRTGGRTYYADSVKGRFTISRDNAKYTVYLQMNSLNPEDTAVYYCNRAPHIAPEDYDYWGQGTQVTVSS
polyreactivity (PSR sort gate): high polyreactivity
